Measurements published in the supplement of paper PMC10065799, “High-throughput profiling of sequence recognition by tyrosine kinases and SH2 domains using bacterial peptide display” (eLife, 2023).

Legend:
[1] = target: Jak2 (UniProt O60674); assay: phosphorylation enrichment, bacterial display (enrichment ratio); higher = better substrate or ligand; peptides without Tyr show the background
[2] = target: EPHB2 (UniProt P29323); assay: as above
[3] = test system: c-Abl (mouse); assay: as above
[4] = test system: c-Src; assay: as above
[5] = test system: AncSZ; assay: as above
[6] = target: FGFR1 (UniProt P11362); assay: as above
Chain of FGFR1 (P11362 whole entry, looked up): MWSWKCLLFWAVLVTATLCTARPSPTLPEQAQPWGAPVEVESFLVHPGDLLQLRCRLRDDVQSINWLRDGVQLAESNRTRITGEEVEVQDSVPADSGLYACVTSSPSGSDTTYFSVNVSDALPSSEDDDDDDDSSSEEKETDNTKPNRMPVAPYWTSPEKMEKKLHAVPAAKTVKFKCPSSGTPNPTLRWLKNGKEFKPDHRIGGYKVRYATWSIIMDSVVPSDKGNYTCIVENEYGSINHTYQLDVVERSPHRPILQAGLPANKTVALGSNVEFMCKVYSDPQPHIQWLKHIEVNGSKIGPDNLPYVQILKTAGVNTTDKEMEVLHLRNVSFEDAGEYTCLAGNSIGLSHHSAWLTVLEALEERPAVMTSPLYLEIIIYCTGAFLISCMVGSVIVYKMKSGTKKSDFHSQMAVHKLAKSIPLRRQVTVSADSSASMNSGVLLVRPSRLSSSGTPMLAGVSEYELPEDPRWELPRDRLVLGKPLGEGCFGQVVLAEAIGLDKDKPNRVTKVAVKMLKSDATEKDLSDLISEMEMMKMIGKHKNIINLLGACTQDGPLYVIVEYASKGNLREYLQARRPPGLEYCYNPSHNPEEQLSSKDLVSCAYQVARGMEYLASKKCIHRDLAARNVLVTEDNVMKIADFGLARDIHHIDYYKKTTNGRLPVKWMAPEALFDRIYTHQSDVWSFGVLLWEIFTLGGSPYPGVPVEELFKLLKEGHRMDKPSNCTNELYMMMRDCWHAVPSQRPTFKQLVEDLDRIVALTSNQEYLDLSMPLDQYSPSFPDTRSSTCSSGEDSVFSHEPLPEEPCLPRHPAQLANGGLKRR

[7] = target: Fes (UniProt P07332); assay: as above
Chain of Fes (P07332 whole entry, looked up): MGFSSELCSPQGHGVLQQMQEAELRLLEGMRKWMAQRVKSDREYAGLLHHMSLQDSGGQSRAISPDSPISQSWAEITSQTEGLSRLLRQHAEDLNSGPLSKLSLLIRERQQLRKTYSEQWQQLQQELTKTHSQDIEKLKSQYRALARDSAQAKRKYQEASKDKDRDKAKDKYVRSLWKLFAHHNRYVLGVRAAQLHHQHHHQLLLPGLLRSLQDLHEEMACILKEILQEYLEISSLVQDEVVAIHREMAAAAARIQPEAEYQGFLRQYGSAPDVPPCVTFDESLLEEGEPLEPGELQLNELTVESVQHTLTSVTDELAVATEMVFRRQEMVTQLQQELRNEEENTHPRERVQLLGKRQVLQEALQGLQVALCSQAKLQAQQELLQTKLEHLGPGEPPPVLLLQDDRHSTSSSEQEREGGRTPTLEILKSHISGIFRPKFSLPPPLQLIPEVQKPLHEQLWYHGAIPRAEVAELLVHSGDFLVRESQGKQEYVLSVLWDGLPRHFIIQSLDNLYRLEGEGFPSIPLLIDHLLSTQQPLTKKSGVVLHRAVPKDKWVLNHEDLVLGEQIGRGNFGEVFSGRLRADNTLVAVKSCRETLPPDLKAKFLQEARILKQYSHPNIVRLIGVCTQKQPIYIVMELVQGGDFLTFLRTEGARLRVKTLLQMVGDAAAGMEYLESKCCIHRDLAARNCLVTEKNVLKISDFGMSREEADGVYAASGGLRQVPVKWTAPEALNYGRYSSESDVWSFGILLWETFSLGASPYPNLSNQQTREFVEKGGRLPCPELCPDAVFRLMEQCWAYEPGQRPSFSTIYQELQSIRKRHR

[8] = target: FGFR3 (UniProt P22607); assay: as above
Chain of FGFR3 (P22607 whole entry, looked up): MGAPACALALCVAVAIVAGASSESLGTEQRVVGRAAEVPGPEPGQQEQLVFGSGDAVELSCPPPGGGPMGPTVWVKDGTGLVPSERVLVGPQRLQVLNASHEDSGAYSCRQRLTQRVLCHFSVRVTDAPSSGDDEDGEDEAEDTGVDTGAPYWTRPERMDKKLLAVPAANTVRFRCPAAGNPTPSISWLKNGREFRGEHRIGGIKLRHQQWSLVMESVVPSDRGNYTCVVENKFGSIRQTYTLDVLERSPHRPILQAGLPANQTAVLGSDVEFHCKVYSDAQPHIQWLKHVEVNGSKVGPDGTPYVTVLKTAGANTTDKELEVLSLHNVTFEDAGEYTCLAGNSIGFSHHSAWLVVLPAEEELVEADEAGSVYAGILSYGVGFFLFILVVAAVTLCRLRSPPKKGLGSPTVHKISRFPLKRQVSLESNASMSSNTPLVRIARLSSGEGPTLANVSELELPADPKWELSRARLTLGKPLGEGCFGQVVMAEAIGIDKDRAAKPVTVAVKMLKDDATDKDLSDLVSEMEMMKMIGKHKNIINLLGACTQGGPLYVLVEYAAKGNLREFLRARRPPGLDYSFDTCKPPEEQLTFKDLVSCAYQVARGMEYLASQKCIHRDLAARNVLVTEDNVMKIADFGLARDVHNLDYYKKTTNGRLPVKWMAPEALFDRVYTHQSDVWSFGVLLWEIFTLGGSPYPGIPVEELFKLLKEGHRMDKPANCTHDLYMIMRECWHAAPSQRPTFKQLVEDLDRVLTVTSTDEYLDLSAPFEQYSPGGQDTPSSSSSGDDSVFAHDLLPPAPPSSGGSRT

[9] = target: Fyn (UniProt P06241); assay: as above
[10] = target: MERTK (UniProt Q12866); assay: as above
[11] = target: Hck (UniProt P08631); assay: as above
Chain of Hck (P08631 whole entry, looked up): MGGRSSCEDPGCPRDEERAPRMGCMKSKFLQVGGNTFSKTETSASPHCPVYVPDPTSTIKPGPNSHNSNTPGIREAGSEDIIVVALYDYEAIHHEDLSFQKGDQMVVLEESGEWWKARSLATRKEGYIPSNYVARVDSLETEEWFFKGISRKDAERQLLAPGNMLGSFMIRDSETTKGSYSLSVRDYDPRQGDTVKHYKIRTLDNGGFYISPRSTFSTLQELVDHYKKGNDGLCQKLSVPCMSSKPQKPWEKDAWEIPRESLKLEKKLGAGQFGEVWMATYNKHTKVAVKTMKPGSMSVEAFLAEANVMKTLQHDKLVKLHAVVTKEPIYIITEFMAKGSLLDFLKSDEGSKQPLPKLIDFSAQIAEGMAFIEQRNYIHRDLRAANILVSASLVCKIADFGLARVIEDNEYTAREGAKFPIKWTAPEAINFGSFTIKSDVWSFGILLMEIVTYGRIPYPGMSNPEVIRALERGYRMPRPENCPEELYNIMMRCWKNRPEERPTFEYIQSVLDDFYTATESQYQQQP

[12] = test system: Fer (mouse); assay: as above
[13] = target: EPHB1 (UniProt P54762); assay: as above
Chain of EPHB1 (P54762 whole entry, looked up): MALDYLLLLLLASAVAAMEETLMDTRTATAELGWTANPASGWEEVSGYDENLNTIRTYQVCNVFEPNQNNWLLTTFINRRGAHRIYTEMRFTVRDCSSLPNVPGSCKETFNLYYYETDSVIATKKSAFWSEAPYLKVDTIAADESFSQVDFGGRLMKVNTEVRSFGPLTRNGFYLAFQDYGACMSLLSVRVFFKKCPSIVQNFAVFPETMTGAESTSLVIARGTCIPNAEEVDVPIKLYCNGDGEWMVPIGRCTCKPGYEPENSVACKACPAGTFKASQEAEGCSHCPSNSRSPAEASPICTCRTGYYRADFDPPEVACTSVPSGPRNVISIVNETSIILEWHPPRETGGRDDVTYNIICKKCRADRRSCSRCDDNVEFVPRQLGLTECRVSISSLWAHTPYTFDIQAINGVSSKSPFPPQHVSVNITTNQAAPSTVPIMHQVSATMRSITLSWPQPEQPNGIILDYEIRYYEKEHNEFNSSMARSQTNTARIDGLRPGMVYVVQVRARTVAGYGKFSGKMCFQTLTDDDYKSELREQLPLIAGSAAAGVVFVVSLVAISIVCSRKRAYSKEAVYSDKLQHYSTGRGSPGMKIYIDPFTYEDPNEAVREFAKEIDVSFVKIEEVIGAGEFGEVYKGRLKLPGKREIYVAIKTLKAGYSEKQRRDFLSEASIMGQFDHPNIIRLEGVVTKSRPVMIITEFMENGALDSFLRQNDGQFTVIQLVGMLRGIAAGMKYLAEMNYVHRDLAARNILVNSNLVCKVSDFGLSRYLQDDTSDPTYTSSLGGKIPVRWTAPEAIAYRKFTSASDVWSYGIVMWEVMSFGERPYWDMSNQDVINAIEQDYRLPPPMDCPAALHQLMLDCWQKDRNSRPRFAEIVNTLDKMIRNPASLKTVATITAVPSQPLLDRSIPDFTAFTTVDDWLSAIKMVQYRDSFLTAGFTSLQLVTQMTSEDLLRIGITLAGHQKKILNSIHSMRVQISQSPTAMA

[14] = target: Grb2 SH2 (UniProt P62993); assay: SH2 binding enrichment of the phosphorylated peptide, bacterial display (enrichment ratio); higher = better substrate or ligand; peptides without Tyr show the background
[15] = target: SHP2-C SH2; assay: as above
[16] = target: c-Src SH2; assay: as above
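For SH2 binding enrichment of the phosphorylated peptide, bacterial display in this document: peptide library displayed on the E. coli surface as eCPX fusions, selected cells deep-sequenced, score is each peptide's frequency after selection divided by its frequency in the input.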
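For phosphorylation enrichment, bacterial display in this document: 11-residue human phosphosite peptides and single-mutation variants displayed on the E. coli surface, counted by deep sequencing, each peptide's frequency after selection divided by its frequency in the unselected input library; frequency after pTyr selection over input frequency; kinase dosed for 20-30% of maximal phosphorylation in three min.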

Chain of EPHB2 (P29323 whole entry, looked up): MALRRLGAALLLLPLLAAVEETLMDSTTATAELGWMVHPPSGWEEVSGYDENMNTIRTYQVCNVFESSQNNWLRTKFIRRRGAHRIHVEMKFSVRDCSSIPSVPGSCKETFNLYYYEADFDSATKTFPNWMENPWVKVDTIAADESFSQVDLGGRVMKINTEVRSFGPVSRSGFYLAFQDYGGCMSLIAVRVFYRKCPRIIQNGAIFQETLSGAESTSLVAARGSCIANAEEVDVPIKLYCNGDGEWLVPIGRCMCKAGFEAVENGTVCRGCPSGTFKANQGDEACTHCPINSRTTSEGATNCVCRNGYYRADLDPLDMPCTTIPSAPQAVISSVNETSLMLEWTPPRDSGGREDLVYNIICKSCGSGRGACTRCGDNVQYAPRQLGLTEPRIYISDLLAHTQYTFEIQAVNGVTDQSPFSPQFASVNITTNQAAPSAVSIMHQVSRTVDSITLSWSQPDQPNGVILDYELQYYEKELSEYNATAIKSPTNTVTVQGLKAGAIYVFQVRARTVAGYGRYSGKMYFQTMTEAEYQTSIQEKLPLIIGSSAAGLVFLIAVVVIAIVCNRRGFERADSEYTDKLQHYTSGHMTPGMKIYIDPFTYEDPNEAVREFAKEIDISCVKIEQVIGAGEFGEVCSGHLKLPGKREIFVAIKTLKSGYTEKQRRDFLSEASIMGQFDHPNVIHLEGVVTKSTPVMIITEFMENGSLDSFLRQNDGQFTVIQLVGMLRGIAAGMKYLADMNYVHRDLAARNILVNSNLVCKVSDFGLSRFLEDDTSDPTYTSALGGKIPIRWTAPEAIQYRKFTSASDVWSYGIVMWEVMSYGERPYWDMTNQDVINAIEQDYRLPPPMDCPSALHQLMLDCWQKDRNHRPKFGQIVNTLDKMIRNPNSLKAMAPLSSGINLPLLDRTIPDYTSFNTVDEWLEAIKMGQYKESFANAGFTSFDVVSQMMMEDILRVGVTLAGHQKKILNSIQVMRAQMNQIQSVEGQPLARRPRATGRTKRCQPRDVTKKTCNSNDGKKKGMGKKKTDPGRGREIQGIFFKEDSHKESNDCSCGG

Sequence	SH2 binding enrichment [14]	SH2 binding enrichment [15]	SH2 binding enrichment [16]	phosphorylation enrichment [1]	phosphorylation enrichment [2]	phosphorylation enrichment [3]	phosphorylation enrichment [4]	phosphorylation enrichment [5]	phosphorylation enrichment [6]	phosphorylation enrichment [7]	phosphorylation enrichment [8]	phosphorylation enrichment [9]	phosphorylation enrichment [10]	phosphorylation enrichment [11]	phosphorylation enrichment [12]	phosphorylation enrichment [13]
ASKEPYFVHCI [MYO1D_Y585_R588H_YF]	0.982	0.886	0.715	0.675	0.481	0.611	0.523	0.846	0.583	0.881	0.882	0.503	0.427	0.475	0.56	1.05
RRYLYYYSYLL [PTEN_Y177_V175L]	0.973	0.712	0.686	3.29	0.91	1.02	1.68	1.13	1.74	1.75	1.93	0.816	5.8	1.17	1.24	1.13
ALETLYKKAVK [CC2D2A_Y381_E376A]	0.889	0.599	0.511	0.603	0.366	0.463	0.307	0.559	0.405	0.864	0.475	0.342	0.338	0.396	0.446	0.348
TEAEPYFRSLR [NPHS1_Y1138_YF]	0.938	1.02	0.571	0.843	0.519	0.758	0.477	0.852	0.399	0.953	0.639	0.557	0.447	0.511	0.494	0.448
IYLGAYDRFLP [SLC22A5_Y486_V481I]	0.979	2.29	0.726	1.16	4.21	2.56	5.43	1.72	0.918	1.18	0.94	5	6.6	6.82	2.42	2.18
HFPFQYHRQLF [F12_Y53_YF]	1.67	1.14	1.14	0.669	0.585	1.44	0.546	0.924	0.555	0.78	0.694	0.466	0.507	0.52	0.538	0.618

The next lines start with results.

SH2 binding enrichment [14]	SH2 binding enrichment [15]	SH2 binding enrichment [16]	Sequence	phosphorylation enrichment [1]	phosphorylation enrichment [2]	phosphorylation enrichment [3]	phosphorylation enrichment [4]	phosphorylation enrichment [5]	phosphorylation enrichment [6]	phosphorylation enrichment [7]	phosphorylation enrichment [8]	phosphorylation enrichment [9]	phosphorylation enrichment [10]	phosphorylation enrichment [11]	phosphorylation enrichment [12]	phosphorylation enrichment [13]
0.777	0.618	0.605	EEEYEYMNRRR [ERBB3_Y1199_D1194E]	0.882	0.402	0.329	0.36	1.15	0.429	0.804	0.583	0.332	0.356	0.546	0.342	0.324
1.3	1.76	1.21	LVMFIYAIFWM [SCN1A_Y1684_G1688W]	0.963	0.491	0.739	0.5	1.07	0.566	1.05	0.626	0.563	0.527	0.558	0.531	0.525
1.02	0.626	4.1	KSIQLYDTPYE [SHB_Y297_G293S]	0.921	15.8	1.03	0.986	1.29	0.521	1.07	0.643	0.827	4.79	1.76	3.02	11.6
1.15	0.812	0.907	CQAHGYFCQPI [STK11_Y156_L160P]	0.615	0.436	0.783	0.404	0.867	0.646	0.678	0.538	0.329	0.407	0.357	0.362	0.35
1.29	0.459	0.351	RAMPVYKKAEH [TP63_Y231]	0.306	0.26	0.301	0.288	0.462	0.304	0.379	0.238	0.337	0.292	0.27	0.28	0.197
0.791	0.783	0.652	TYVKSYTIHYS [F5_Y2153_M2148T]	0.633	0.722	0.625	0.44	1.27	0.4	1.15	0.696	0.508	0.483	0.567	0.568	0.594
1.13	1.04	0.662	PLLLSYFLIKW [NUP160_Y773_YF]	3.01	0.622	1.33	0.684	1.37	1.53	1.8	1.73	0.561	0.558	0.761	0.37	0.909
0.776	0.519	0.433	MARDISRASYY [ALK_Y1278_Y1278S]	0.65	0.395	0.59	0.463	0.525	0.464	0.73	0.452	0.475	0.453	0.395	0.33	0.422
